# Test results reported in patent US20150183867A1 (AbbVie / Abbott, published 2015).
# Several values for one entry are separate records, joined by “and”; a condition that tells them apart may be missing. Identical values can stand only once.
# T1: Repulsive Guidence Molecule A (UniProt Q96B86 48-422, limits assumed)
# T1 construct: Bought reagent for the ELISA; also called RGM-A; RGMa
# T1 sequence (looked up): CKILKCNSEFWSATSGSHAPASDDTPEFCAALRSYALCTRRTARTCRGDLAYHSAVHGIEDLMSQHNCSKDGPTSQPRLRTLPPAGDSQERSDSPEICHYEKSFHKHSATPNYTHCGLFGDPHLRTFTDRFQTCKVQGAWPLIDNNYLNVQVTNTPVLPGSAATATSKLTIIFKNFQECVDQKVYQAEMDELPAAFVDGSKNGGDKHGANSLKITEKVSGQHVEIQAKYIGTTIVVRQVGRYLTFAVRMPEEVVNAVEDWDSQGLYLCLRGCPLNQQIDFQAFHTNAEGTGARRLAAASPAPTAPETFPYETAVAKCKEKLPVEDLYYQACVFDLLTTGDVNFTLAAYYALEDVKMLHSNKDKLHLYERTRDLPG
# B1: DVD293 (bispecific antibody, human IgG1, kappa)
# heavy: not shown
# light: DIVMTQSQKFMSTSVGDRVSITCKASQNVGTAVAWYQQRPGQSPKLLIFSASNRYTGVPDRFTGSGSGTDFTLTLSNMQPEDLADYFCQQYSSYPLTFGVGTKLELKRTVAAPDVVMTQSPLSLPVTPGEPASISCKSSQSLLDSDGKTYLNWLLQKPGQSPQRLIYLVSKLDSGVPDRFSGSGSGTDFTLKISRVEAEDVGVYYCWQGTHFPRTFGQGTKVEIKRTVAAPSVFIFPPSDEQLKSGTASVVCLLNNFYPREAKVQWKVDNALQSGNSQESVTEQDSKDSTYSLSSTLTLSKADYEKHKVYACEVTHQGLSSPVTKSFNRGEC
# notes: DVD-Ig; also called VD293H/VD293L
# B2: DVD294 (bispecific antibody, human IgG1, kappa)
# heavy: not shown
# light: DVVMTQSPLSLPVTPGEPASISCKSSQSLLDSDGKTYLNWLLQKPGQSPQRLIYLVSKLDSGVPDRFSGSGSGTDFTLKISRVEAEDVGVYYCWQGTHFPRTFGQGTKVEIKRTVAAPDIVMTQSQKFMSTSVGDRVSITCKASQNVGTAVAWYQQRPGQSPKLLIFSASNRYTGVPDRFTGSGSGTDFTLTLSNMQPEDLADYFCQQYSSYPLTFGVGTKLELKRTVAAPSVFIFPPSDEQLKSGTASVVCLLNNFYPREAKVQWKVDNALQSGNSQESVTEQDSKDSTYSLSSTLTLSKADYEKHKVYACEVTHQGLSSPVTKSFNRGEC
# notes: DVD-Ig; also called VD294H/VD294L
# B3: DVD230 (bispecific antibody, human IgG1, kappa)
# heavy: not shown
# light: QSVLTQPPSVSAAPGQKVTISCSGSSSNIENNHVSWYQQLPGTAPKLLIYDNNKRPSGIPDRFSGSKSGTSATLGITGLQTGDEADYYCETWDTSLSAGRVFGGGTKLTVLGQPKAAPDVVMTQSPLSLPVTPGEPASISCKSSQSLLDSDGKTYLNWLLQKPGQSPQRLIYLVSKLDSGVPDRFSGSGSGTDFTLKISRVEAEDVGVYYCWQGTHFPRTFGQGTKVEIKRTVAAPSVFIFPPSDEQLKSGTASVVCLLNNFYPREAKVQWKVDNALQSGNSQESVTEQDSKDSTYSLSSTLTLSKADYEKHKVYACEVTHQGLSSPVTKSFNRGEC
# notes: DVD-Ig; also called VD230H/VD230L
# B4: DVD232 (bispecific antibody, human IgG1, kappa)
# heavy: not shown
# light: EIVMTQSPATLSVSPGERATLSCRASESISSNLAWYQQKPGQAPRLFIYTASTRATDIPARFSGSGSGTEFTLTISSLQSEDFAVYYCQQYNNWPSITFGQGTRLEIKRTVAAPDVVMTQSPLSLPVTPGEPASISCKSSQSLLDSDGKTYLNWLLQKPGQSPQRLIYLVSKLDSGVPDRFSGSGSGTDFTLKISRVEAEDVGVYYCWQGTHFPRTFGQGTKVEIKRTVAAPSVFIFPPSDEQLKSGTASVVCLLNNFYPREAKVQWKVDNALQSGNSQESVTEQDSKDSTYSLSSTLTLSKADYEKHKVYACEVTHQGLSSPVTKSFNRGEC
# notes: DVD-Ig; also called VD232H/VD232L
# B5: AB059 (antibody, human IgG1, kappa, V domains shown)
# VH: EVQLVESGGGLVQPGSSLKLSCVASGFTFSNYGMNWIRQAPKKGLEWIGMIYYDSSEKHYADSVKGRFTISRDNSKNTLYLEMNSLRSEDTAIYYCAKGTTPDYWGQGVMVTVSS
# VL: DVVLTQTPVSLSVTLGDQASMSCRSSQSLEYSDGYTFLEWFLQKPGQSPQLLIYEVSNRFSGVPDRFIGSGSGTDFTLKISRVEPEDLGVYYCFQATHDPLTFGSGTKLEIKR
# notes: also called RGMa parent antibody; RGMA parent antibody
# B6: DVD233 (bispecific antibody, human IgG1, kappa)
# heavy: not shown
# light: DVVMTQSPLSLPVTPGEPASISCKSSQSLLDSDGKTYLNWLLQKPGQSPQRLIYLVSKLDSGVPDRFSGSGSGTDFTLKISRVEAEDVGVYYCWQGTHFPRTFGQGTKVEIKRTVAAPQIVLIQSPAIMSASPGEKVTMTCSASSSVSYMYWYQQKPGSSPRLLIYDTSNLASGVPVRFSGSGSGTSYSLTISRMEAEDAATYYCQQWSGYPYTFGGGTKLEIKRTVAAPSVFIFPPSDEQLKSGTASVVCLLNNFYPREAKVQWKVDNALQSGNSQESVTEQDSKDSTYSLSSTLTLSKADYEKHKVYACEVTHQGLSSPVTKSFNRGEC
# notes: DVD-Ig; also called VD233H/VD233L
# B7: AB032 (antibody, human IgG1, kappa, V domains shown)
# VH: QVQLVESGGGVVQPGRSLRLSCAASGFTFSVYGMNWVRQAPGKGLEWVAIIWYDGDNQYYADSVKGRFTISRDNSKNTLYLQMNGLRAEDTAVYYCARDLRTGPFDYWGQGTLVTVSS
# VL: EIVLTQSPDFQSVTPKEKVTITCRASQSIGSSLHWYQQKPDQSPKLLIKYASQSFSGVPSRFSGSGSGTDFTLTINSLEAEDAAAYYCHQSSSLPFTFGPGTKVDIKR
# notes: also called IL-1β parent antibody
# B8: AB060 (antibody, human IgG1, kappa, V domains shown)
# VH: QIQLVQSGPELKKPGETVKISCKASGYTFTNFGMNWVKQAPGKGLKWMGYINTNTGESIYSEEFKGRFAFSLETSASTAYLQINNLKNEDTATYFCARSRMVTAYGMDYWGQGTSVTVSS
# VL: DIVMTQSQKFMSTSVGDRVSITCKASQNVGTAVAWYQQRPGQSPKLLIFSASNRYTGVPDRFTGSGSGTDFTLTLSNMQPEDLADYFCQQYSSYPLTFGVGTKLELKR
# Key:
# Aβ1-42 [1] = molecular target: T2, Aβ1-42 (UniProt P05067 672-713); assay: Aβ 1-42 ELISA, peptide on plate; C-terminal VD
# T2 construct: domain: Aβ1-42; Aβ 1-42 is a part of it; also called A beta
# Method: (§1) ELISA assays were performed to screen for antibodies that bind a desired target antigen as follows. Maxisorb NUNC Immuno plates were coated with 100 μL/well of 1 μg/ml of Aβ1-42 diluted in coating buffer overnight at 6° C. Plates were washed three times with PBS containing 0.02% Tween 20. Blocking solution was prepared by dissolving the blocking reagent for ELISA (Roche) in 100 mL water and then diluted further 1:10 prior to use. Plates were blocked by the addition of 265 μL/well blocking solution for 2 hours at room temperature. Plates were washed three times after blocking with PBS containing 0.02% Tween 20.
# (§2) Antibody or DVD-Igs were diluted to 100 ng/μL in PBST+0.5% BSA and serially diluted 1:3. One hundred microliters of antibody or DVD-Ig preparations was added to the plate and incubated for 2 hour at room temperature. Wells were washed three times with PBS containing 0.02% Tween 20.
# (§3) One hundred microliters of TMB solution was added to each well and incubated for 10 minutes. TMB solution was prepared by mixing 20 mL 100 mM natrium-acetate pH4.9 with 200 μL TMB solution (Roche #92817060) and 29.5 μL 3% H₂O₂. The reaction was stopped by the addition of 50 μL 1N sulphuric acid. Plates were read spectrophotometrically at a wavelength of 450 nm.
# RAGE/FC Chimera [2] = molecular target: T3, RAGE/FC Chimera (UniProt Q15109 23-342); assay: direct bind ELISA, antigen on plate; N-terminal VD
# T3 construct: extracellular domain; Bought reagent; not shown: Fc region of the bought chimera
# T3 sequence (Q15109 23-342, change not shown): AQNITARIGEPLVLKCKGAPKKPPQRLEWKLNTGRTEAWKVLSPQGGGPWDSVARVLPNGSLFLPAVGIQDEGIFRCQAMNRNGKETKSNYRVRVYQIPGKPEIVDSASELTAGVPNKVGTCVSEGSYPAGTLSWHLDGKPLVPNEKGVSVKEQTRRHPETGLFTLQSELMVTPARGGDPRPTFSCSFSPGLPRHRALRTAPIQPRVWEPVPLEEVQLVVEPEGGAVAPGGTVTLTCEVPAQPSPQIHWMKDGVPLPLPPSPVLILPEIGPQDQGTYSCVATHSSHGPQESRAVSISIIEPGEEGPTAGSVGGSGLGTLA
# Method: (§4) Enzyme Linked Immunosorbent Assays to screen for antibodies that bind a desired target antigen were performed as follows. High bind ELISA plates (Corning Costar #3369, Acton, Mass.) were coated with 100 μL/well of 10 μg/ml of desired target antigen (R&D Systems, Minneapolis, Minn.) or desired target antigen extra-cellular domain/FC fusion protein (R&D Systems, Minneapolis, Minn.) or monoclonal mouse anti-polyHistidine antibody (R&D Systems # MAB050, Minneapolis, Minn.) in phosphate buffered saline (10×PBS, Abbott Bioresearch Center, Media Prep# MPS-073, Worcester, Mass.) overnight at 4° C. Plates were washed four times with PBS containing 0.02% Tween 20. Plates were blocked by the addition of 300 μL/well blocking solution (non-fat dry milk powder, various retail suppliers, diluted to 2% in PBS) for 1/2 hour at room temperature. Plates were washed four times after blocking with PBS containing 0.02% Tween 20.
# (§5) One hundred microliters of antibody or DVD-Ig preparations diluted in blocking solution as described above was added to the desired target antigen plate or desired target antigen/FC fusion plate or the anti-polyHistidine antibody/His tagged desired target antigen plate prepared as described above and incubated for 1 hour at room temperature. Wells were washed four times with PBS containing 0.02% Tween 20.
# (§6) One hundred microliters of 10 ng/mL goat anti-human IgG-FC specific HRP conjugated antibody (Southern Biotech #2040-05, Birmingham, Ala.) was added to each well of the desired target antigen plate or anti-polyHistidine antibody/Histidine tagged desired target antigen plate. Alternatively, one hundred microliters of 10 ng/mL goat anti-human IgG-kappa light chain specific HRP conjugated antibody (Southern Biotech #2060-05 Birmingham, Ala.) was added to each well of the desired target antigen/FC fusion plate and incubated for 1 hour at room temperature. Plates were washed 4 times with PBS containing 0.02% Tween 20.
# Aβ1-42 [3] = molecular target: T2, Aβ1-42; assay: Aβ 1-42 ELISA, peptide on plate; N-terminal VD
# Method: as §1, §2, §3
# RAGE/FC Chimera [4] = molecular target: T3, RAGE/FC Chimera; assay: direct bind ELISA, antigen on plate; C-terminal VD
# Method: as §4, §5, §6
# IGF-I = molecular target: T4, IGF-I (UniProt P05019 49-118); assay: direct bind ELISA, antigen on plate; N-terminal VD
# T4 construct: Bought reagent; also called IGF1; IGF-1
# Method: as §4, §5, §6
# IGF-II = molecular target: T5, IGF-II (UniProt P01344 25-91); assay: direct bind ELISA, antigen on plate; N-terminal VD
# T5 construct: Bought reagent; also called IGF2; IGF-2
# Method: as §4, §5, §6
# IL-18 = molecular target: T6, IL-18 (UniProt Q14116 37-193, limits assumed); assay: direct bind ELISA, antigen on plate; N-terminal VD
# T6 construct: Bought reagent
# Method: as §4, §5, §6
# [5] = molecular target: T1, Repulsive Guidence Molecule A; assay: SPR (Biacore), antibody captured; parent antibody
# Method: The BIACORE assay (Biacore, Inc, Piscataway, N.J.) determines the affinity of antibodies or DVD-Ig with kinetic measurements of on-rate and off-rate constants. Binding of antibodies or DVD-Ig to a target antigen (for example, a purified recombinant target antigen) is determined by surface plasmon resonance-based measurements with a Biacore® 1000 or 3000 instrument (Biacore® AB, Uppsala, Sweden) using running HBS-EP (10 mM HEPES [pH 7.4], 150 mM NaCl, 3 mM EDTA, and 0.005% surfactant P20) at 25° C. All chemicals are obtained from Biacore® AB (Uppsala, Sweden) or otherwise from a different source as described in the text. For example, approximately 5000 RU of goat anti-mouse IgG, (Fcγ), fragment specific polyclonal antibody (Pierce Biotechnology Inc, Rockford, Ill.) diluted in 10 mM sodium acetate (pH 4.5) is directly immobilized across a CMS research grade biosensor chip using a standard amine coupling kit according to manufacturer's instructions and procedures at 25 μg/ml. Unreacted moieties on the biosensor surface are blocked with ethanolamine. Modified carboxymethyl dextran surface in flowcell 2 and 4 is used as a reaction surface. Unmodified carboxymethyl dextran without goat anti-mouse IgG in flow cell 1 and 3 is used as the reference surface. For kinetic analysis, rate equations derived from the 1:1 Langmuir binding model are fitted simultaneously to association and dissociation phases of all eight injections (using global fit analysis) with the use of Biaevaluation 4.0.1 software. Purified antibodies or DVD-Ig are diluted in HEPES-buffered saline for capture across goat anti-mouse IgG specific reaction surfaces. Antibodies or DVD-Ig to be captured as a ligand (25 μg/ml) are injected over reaction matrices at a flow rate of 5 μl/min. […] The equilibrium dissociation constant (M) of the reaction between antibodies or DVD-Igs and the target antigen is then calculated from the kinetic rate constants by the following formula: KD=koff/kₒₙ. Binding is recorded as a function of time and kinetic rate constants are calculated.
# [6] = molecular target: T1, Repulsive Guidence Molecule A; assay: direct bind ELISA, antigen on plate; parent antibody
# Method: as §4, §5, §6
# Recombinant Human IL-1β = molecular target: T7, Recombinant Human IL-1β (human, UniProt P01584 117-269); assay: as above
# T7 construct: Bought reagent; also called IL-1B
# Method: as §4, §5, §6
# RAGE/FC Chimera [7] = molecular target: T3, RAGE/FC Chimera; assay: as above
# Method: as §4, §5, §6
binder,measurement,setting,value
B1,EC50,Aβ1-42 [1],0.048 nM
same,EC50,RAGE/FC Chimera [2],7.32 nM
B2,EC50,Aβ1-42 [3],0.014 nM
same,EC50,RAGE/FC Chimera [4],1.53 nM
B3,EC50,Aβ1-42 [1],0.039 nM
same,EC50,IGF-I,4.84 nM
same,EC50,IGF-II,2.44 nM
B4,EC50,Aβ1-42 [1],0.048 nM
same,EC50,IL-18,0.68 nM
B5,Kd,[5],0.64 nM
same,koff,[5],0.000609 s⁻¹
same,kon,[5],952000 M⁻¹ s⁻¹
same,EC50,[6],0.13 nM
B6,EC50,Aβ1-42 [3],0.013 nM
B7,EC50,Recombinant Human IL-1β,5.27 nM
B8,EC50,RAGE/FC Chimera [7],1.69 nM and 0.64 nM
